Earlier results, collected in publication PMC9008539.

Molecular target: PfRh5 (Plasmodium falciparum) (UniProt Q8IFM5)
Sequence (Q8IFM5 25-526): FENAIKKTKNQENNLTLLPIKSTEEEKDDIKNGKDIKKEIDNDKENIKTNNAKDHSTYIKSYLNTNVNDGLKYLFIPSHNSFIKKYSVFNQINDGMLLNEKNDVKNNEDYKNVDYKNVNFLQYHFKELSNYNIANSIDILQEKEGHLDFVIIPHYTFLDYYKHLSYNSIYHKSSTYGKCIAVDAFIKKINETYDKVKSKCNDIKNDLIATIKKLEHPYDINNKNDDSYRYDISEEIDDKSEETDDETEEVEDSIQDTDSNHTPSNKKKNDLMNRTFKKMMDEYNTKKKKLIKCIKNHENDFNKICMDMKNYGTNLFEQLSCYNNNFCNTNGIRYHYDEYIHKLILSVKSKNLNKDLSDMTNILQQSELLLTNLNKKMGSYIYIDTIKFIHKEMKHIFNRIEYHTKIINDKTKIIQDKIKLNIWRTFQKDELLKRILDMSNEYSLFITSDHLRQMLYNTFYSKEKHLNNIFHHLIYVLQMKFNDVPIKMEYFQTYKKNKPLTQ

PfRipr (from UniProt O97302)
Kd: 0.48 nM
